Experiment [1] concerns the target T1, recombinant human 4-1BB (Sino Biological Inc., catalog number 10041-H08H) (human, UniProt Q07011 24-186).
T1 construct: Bought protein coated on ELISA plates; treated as the same molecule; also called recombinant human 4-1BB-His protein; CD137
The experiment in a line: ELISA, coated recombinant human 4-1BB, steps of Example 4.

The target in experiment [2] is recombinant human CTLA4 (human, UniProt P16410 36-162). The experiment in a line: ELISA, coated antigen 1 µg/mL. In general terms: In an ELISA, binding on a coated surface is turned into a signal by an enzyme label.
Experiment [3] addresses T2, recombinant human CD28 (human, UniProt P10747 19-152).
T2 construct: also called CD28 family member
The experiment in a line: ELISA, coated antigen 1 µg/mL.

Experiment [4] has as its target T3, recombinant human LAG-3 (human, UniProt P18627 23-450).
T3 sequence (looked up): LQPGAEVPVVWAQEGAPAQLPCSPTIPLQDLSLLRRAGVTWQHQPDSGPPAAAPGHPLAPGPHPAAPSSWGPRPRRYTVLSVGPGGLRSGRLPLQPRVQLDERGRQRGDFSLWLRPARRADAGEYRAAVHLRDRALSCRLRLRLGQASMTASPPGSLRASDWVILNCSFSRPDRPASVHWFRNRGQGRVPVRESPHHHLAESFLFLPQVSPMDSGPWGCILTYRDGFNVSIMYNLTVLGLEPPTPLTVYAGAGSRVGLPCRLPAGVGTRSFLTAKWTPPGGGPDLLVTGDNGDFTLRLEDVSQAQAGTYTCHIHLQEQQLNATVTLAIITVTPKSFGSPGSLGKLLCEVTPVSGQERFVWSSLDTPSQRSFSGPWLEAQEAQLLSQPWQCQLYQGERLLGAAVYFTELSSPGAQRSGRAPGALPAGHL
The experiment in a line: ELISA, coated antigen 1 µg/mL.

Experiment [5] has as its target T4, recombinant human PD-L2 (human, UniProt Q9BQ51 20-220).
T4 construct: also called B7 family member
T4 sequence (looked up): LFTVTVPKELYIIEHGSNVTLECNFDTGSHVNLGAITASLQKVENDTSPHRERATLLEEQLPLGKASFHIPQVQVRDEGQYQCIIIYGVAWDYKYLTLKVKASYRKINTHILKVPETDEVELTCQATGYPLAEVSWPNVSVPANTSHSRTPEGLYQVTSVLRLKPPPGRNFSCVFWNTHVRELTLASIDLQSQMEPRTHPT
The experiment in a line: ELISA, coated antigen 1 µg/mL.

Experiment [6] deals with T5, recombinant human CD80 (human, UniProt P33681 35-242).
T5 construct: also called B7 family member
T5 sequence (looked up): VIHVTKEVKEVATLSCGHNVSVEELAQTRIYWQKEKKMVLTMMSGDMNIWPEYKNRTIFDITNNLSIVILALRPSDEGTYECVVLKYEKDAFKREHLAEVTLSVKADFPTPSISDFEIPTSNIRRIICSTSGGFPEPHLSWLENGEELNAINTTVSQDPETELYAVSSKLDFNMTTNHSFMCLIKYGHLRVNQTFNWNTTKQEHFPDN
Nature of the experiment: ELISA, coated antigen 1 µg/mL.

The target in experiment [7] is T6, recombinant human CD86 (human, UniProt P42081 24-245, limits assumed).
T6 construct: also called B7 family member
T6 sequence (looked up): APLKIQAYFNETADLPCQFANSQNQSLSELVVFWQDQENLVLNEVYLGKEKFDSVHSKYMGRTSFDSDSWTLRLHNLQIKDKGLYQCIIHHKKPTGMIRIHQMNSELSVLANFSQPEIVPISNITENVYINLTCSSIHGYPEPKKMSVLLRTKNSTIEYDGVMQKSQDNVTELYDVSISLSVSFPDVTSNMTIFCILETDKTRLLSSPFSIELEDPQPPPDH
Nature of the experiment: ELISA, coated antigen 1 µg/mL.

Experiment [8] has as its target T7, recombinant human OX40 (human, UniProt P43489 29-216).
T7 sequence (looked up): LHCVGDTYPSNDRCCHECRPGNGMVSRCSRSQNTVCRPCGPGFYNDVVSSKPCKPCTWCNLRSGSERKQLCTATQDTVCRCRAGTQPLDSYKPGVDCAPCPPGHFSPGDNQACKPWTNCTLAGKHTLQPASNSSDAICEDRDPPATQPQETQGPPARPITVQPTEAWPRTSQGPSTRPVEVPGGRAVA
The experiment in a line: ELISA, coated antigen 1 µg/mL.

Experiment [9] has as its target recombinant human TIM-3 (human, UniProt Q8TDQ0 22-200). Nature of the experiment: ELISA, coated antigen 1 µg/mL.
The target of experiment [10] is T8, recombinant human BTLA (human, UniProt Q7Z6A9 31-157, limits assumed).
T8 construct: also called CD28 family member
Nature of the experiment: ELISA, coated antigen 1 µg/mL.

Experiment [11] deals with T9, recombinant mouse 4-1BB (mouse, UniProt P20334 24-187).
T9 construct: Bought protein, coated on ELISA plate
T9 sequence (looked up): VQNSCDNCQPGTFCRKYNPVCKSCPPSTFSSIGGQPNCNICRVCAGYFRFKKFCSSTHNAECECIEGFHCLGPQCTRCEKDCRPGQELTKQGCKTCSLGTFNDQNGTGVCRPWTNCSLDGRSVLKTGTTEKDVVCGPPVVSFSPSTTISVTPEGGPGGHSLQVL
The experiment in a line: ELISA, coated antigen 1 µg/mL.

In experiment [12] the target is T10, recombinant human ICOS (human, UniProt Q9Y6W8 21-141).
T10 construct: also called CD28 family member
T10 sequence (looked up): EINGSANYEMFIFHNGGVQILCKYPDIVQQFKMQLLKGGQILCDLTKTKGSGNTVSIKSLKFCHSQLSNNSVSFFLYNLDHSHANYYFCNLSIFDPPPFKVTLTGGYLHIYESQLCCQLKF
Nature of the experiment: ELISA, coated antigen 1 µg/mL.

Experiment [13] has as its target recombinant human CD27 (human, UniProt P26842 20-192). The experiment in a line: ELISA, coated antigen 1 µg/mL.
Experiment [14] concerns the target T11, recombinant human PDI (human, UniProt Q15116 25-167).
T11 construct: also called PD1 (printed 'PDI'); CD28 family member
Nature of the experiment: ELISA, coated antigen 1 µg/mL.

Experiment [15] addresses T12, recombinant human B7-H2 (human, UniProt O75144 19-256, limits assumed).
T12 construct: also called B7 family member
T12 sequence (looked up): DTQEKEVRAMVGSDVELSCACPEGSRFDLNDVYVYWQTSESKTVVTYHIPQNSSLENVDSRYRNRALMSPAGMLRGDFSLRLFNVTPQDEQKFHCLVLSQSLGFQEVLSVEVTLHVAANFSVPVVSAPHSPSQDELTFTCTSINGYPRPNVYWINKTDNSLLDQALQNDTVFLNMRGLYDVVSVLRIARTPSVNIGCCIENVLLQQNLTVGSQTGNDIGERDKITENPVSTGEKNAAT
The experiment in a line: ELISA, coated antigen 1 µg/mL.

We go through two molecules from US20250277044A1 (BEIJING HANMI PHARMACEUTICAL, published 2025).

Chain of recombinant human CTLA4 (P16410 36-162 limits assumed): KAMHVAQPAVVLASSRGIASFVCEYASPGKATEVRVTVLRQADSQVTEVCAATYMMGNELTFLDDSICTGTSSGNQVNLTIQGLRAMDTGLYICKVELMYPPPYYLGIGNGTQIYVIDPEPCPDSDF
T1 sequence (Q07011 24-186 limits assumed): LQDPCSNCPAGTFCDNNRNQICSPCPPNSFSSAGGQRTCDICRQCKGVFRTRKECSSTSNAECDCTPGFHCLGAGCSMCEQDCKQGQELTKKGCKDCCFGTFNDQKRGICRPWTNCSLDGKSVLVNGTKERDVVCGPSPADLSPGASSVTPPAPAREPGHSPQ
Chain of recombinant human CD27 (P26842 20-192 limits assumed): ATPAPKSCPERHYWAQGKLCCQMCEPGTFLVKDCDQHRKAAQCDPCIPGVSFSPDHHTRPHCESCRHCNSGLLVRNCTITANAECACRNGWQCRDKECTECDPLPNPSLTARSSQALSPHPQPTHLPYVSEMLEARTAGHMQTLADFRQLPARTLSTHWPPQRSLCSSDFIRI
T11 sequence (Q15116 25-167 limits assumed): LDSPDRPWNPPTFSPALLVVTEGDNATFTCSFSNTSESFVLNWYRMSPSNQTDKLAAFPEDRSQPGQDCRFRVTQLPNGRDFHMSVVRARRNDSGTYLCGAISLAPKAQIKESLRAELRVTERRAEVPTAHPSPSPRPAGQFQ

B1: humanized anti-human 4-1BB monoclonal antibody BH3145b (antibody, human IgG4 S228P, kappa, V domains shown)
VH: QVQLVQSGAEVKKPGSSVKVSCKASGYTFTSYWINWVRQAPGQGLEWMGNIYPSDSYTNYNQKFKDRVTITADKSTSTAYMELSSLRSEDTAVYYCARLYYGSSPFDYWGQGTTVTVSS
VL: DIQMTQSPSSLSASVGDRVTITCRASQDISNYLNWYQQKPGKVPKLLIYHTSRLHSGVPSRFSGSGSGTDFTLTISSLQPEDVATYYCQQGHTLPRTFGGGTKVEIKR
notes: also called z0
Turning to B1, in experiment [1], the binding result was “binds”.

B2: chimeric anti-human 4-1BB monoclonal antibody mAb-33-83 (antibody, human IgG4 S228P, kappa, V domains shown)
VH: QVQLQQPGAELVRPGASMKLSCKASGYTFTSYWINWVKQRPGQGLEWIGNIYPSDSYTNYNQKFKDKATLTVDKSSSTAYMQLSSPTSEDSAVYYCTRLYYGSSPFDYWGQGTTLTVSS
VL: DIQMTQTTSSLSASLGDRVTISCRASQDISNYLNWYQQKPDGTVKLLIYHTSRLHSGVPPRFSGSGSGTNYSLTISNLEQEDIATYFCQQGHTLPRTFGGGTKLEIKR
notes: expressed in ExpiCHO cells; also called Chimeric mAbs
As to B2, the binding result in experiment [2], in [3], in experiment [4], in experiment [5], in [6] and in experiment [7] was “no binding” in each case. In addition, the binding result in experiment [8], in experiment [9], in [10], in experiment [11], in experiment [12] and in experiment [13] was “no binding” in each case. Moreover, the binding result in [14] and in [15] was “no binding” each time.
